In US20240091274A1 one finds CDC killing of human HIP iECs (CD52) with ABO-matched allogeneic serum (XCelligence) and CDC killing of mouse B6 HIP iECs (CD52) with syngeneic B6 serum (XCelligence) data, which are given here for one substance.

The assay concerns the target Human CD52 (human) (UniProt P31358). The assay is described as follows: cell-based or functional assay.

Human CD52 (human), sequence (P31358 25-61 limits assumed): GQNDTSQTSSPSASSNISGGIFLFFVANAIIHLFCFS

alemtuzumab (antibody) had a CDC killing of human HIP iECs (CD52) with ABO-matched allogeneic serum (XCelligence) of 0.001 µg/ml and a CDC killing of mouse B6 HIP iECs (CD52) with syngeneic B6 serum (XCelligence) of 0.0001 µg/mL.
